# Test results from patent US20210380703A1 (RIGEL PHARMACEUTICALS, published 2021).
# How the values were obtained:
# [1] = target: T1, biotinylated goat anti-human kappa light chain; assay: ELISA, positive control
# T1 construct: Positive control of the ELISA
# Procedure, shortened: (§1)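 ELISA measured binding of ACVR2A-specific monoclonal antibodies to human and mouse ACVR2A. Biotinylated goat anti-human kappa light chain served as positive control and human Fc as negative control.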
# [2] = target: mouse ACVR2A (mouse, UniProt P27038 20-135, limits assumed); assay: ELISA
# mouse ACVR2A, sequence (P27038 20-135 limits assumed): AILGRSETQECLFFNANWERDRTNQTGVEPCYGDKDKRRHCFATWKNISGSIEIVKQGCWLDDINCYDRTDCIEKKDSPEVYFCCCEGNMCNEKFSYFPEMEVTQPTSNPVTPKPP
# Procedure, shortened: as §1
# [3] = target: T2, human ACVR2A (human, UniProt P27037 20-135, limits assumed); assay: ELISA
# T2 construct: also called activin receptor, type II A
# T2 sequence (P27037 20-135 limits assumed): as the sequence (P27038 20-135 limits assumed) above, with R20K, I73V counted along it
# Procedure, shortened: as §1
# Note: test concentration or dose not given here.
Binder,optical density [1],optical density [2],optical density [3]
"368_G08 (antibody, V domains shown, VH and VL only) VH: EVQLLESGGGLVQPGGSLRLSCAASGFTFDDYGMNWVRQAPGKGLEWVSSINYNSGYKSYADSVKGRFTISRDNSKNTLYLQMNSLRAEDTAVYYCARSATWHDTHLDYWGQGTLVTVSS VL: DIQMTQSPSSLSASVGDRVTITCRASQSIVSYVNWYQQKPGKAPKLLIYAATSRHSGVPSRFSGSGSGTDFTLTISSLQPEDFATYYCQQSYNNPLTFGGGTKVEIK",3.29 OD,1.75 OD,1.6 OD
"368_G07 (antibody, V domains shown, VH and VL only) VH: EVQLLESGGGLVQPGGSLRLSCAASGFTFSSYSMHWVRQAPGKGLEWVSSINYNGGYTSYADSVKGRFTISRDNSKNTLYLQMNSLRAEDTAVYYCARSATWHDTHLDYWGQGTLVTVSS VL: DIQMTQSPSSLSASVGDRVTITCRASQSIVSYVNWYQQKPGKAPKLVIYAATSRASGVPSRFSGSGSGTDFTLTISSLQPEDFATYYCQQSYDTPLTFGGGTKVEIK",3.16 OD,2.05 OD,1.79 OD
"365_E08 (antibody, V domains shown, VH and VL only) VH: EVQLLESGGGLVQPGGSLRLSCAASGFTFDSYSMNWVRQAPGKGLEWVSGINYNSGYTSYADSVKGRFTISRDNSKNTLYLQMNSLRAEDTAVYYCARSATWHDTHLDYWGQGTLVTVSS VL: DIQMTQSPSSLSASVGDRVTITCRASQSIISYVNWYQQKPGKAPKLVIYAATSLASGVPSRFSGSGSGTDFTLTISSLQPEDFATYYCQQSYDLPLTFGGGTKVEIK",3.33 OD,2.58 OD,2.59 OD
"368_B05 (antibody, V domains shown, VH and VL only) VH: EVQLLESGGGLVQPGGSLRLSCAASGFTFDSYSMNWVRQAPGKGLEWVSSINYNSGYTGYADSVKGRFTISRDNSKNTLYLQMNSLRAEDTAVYYCARSATWHDTHLDYWGQGTLVTVSS VL: not shown",3.26 OD,1.75 OD,1.73 OD
"367_F12 (antibody, V domains shown, VH and VL only) VH: EVQLLESGGGLVQPGGSLRLSCAASGFTFDDYSMNWVRQAPGKGLEWVSNINYNSGYKGYADSVKGRFTISRDNSKNTLYLQMNSLRAEDTAVYYCARSATWHDTHLDYWGQGTLVTVSS VL: not shown",3.6 OD,2.29 OD,2.38 OD
"365_H04 (antibody, V domains shown, VH and VL only) VH: EVQLLESGGGLVQPGGSLRLSCAASGFTFSDYGMNWVRQAPGKGLEWVSGINYNSGYKSYADSVKGRFTISRDNSKNTLYLQMNSLRAEDTAVYYCARSATWHDTHLDYWGQGTLVTVSS VL: DIQMTQSPSSLSASVGDRVTITCRASQSILTYVNWYQQKPGKAPKLVIYAATSRASGVPSRFSGSGSGTDFTLTISSLQPEDFATYYCQQSYESPLTFGGGTKVEIK",3.5 OD,2.59 OD,2.47 OD
"366_E02 (antibody, V domains shown, VH and VL only) VH: EVQLLESGGGLVQPGGSLRLSCAASGFTFSSYSMNWVRQAPGKGLEWVSGINYNSGYKGYADSVKGRFTISRDNSKNTLYLQMNSLRAEDTAVYYCARSATWHDTHLDYWGQGTLVTVSS VL: not shown",3.46 OD,2.58 OD,2.26 OD
"367_A11 (antibody, V domains shown, VH and VL only) VH: EVQLLESGGGLVQPGGSLRLSCAASGFTFSSYGMHWVRQAPGKGLEWVSGINYNGGYTSYADSVKGRFTISRDNSKNTLYLQMNSLRAEDTAVYYCARSATWHDTHLDYWGQGTLVTVSS VL: DIQMTQSPSSLSASVGDRVTITCRASQSILSYVNWYQQKPGKAPKLVIYATTSLASGVPSRFSGSGSGTDFTLTISSLQPEDFATYYCQQSYNSPLTFGGGTKVEIK",3.61 OD,2.52 OD,2.34 OD

# More lines, now with the values ahead:
optical density [1],optical density [2],optical density [3],Binder
3.28 OD,1.41 OD,1.49 OD,"365_A04 (antibody, V domains shown, VH and VL only) VH: EVQLLESGGGLVQPGGSLRLSCAASGFTFSDYSMNWVRQAPGKGLEWVSGINYNSGYTSYADSVKGRFTISRDNSKNTLYLQMNSLRAEDTAVYYCARSATWHDTHLDYWGQGTLVTVSS VL: DIQMTQSPSSLSASVGDRVTITCRASQSIVSYVNWYQQKPGKAPKLVIYAATSLASGVPSRFSGSGSGTDFTLTISSLQPEDFATYYCQQSYSTPLTFGGGTKVEIK"
3.4 OD,1.85 OD,1.62 OD,"367_H04 (antibody, V domains shown, VH and VL only) VH: EVQLLESGGGLVQPGGSLRLSCAASGFTFSSYSMNWVRQAPGKGLEWVSSINYNGGYTSYADSVKGRFTISRDNSKNTLYLQMNSLRAEDTAVYYCARSATWHDTHLDYWGQGTLVTVSS VL: DIQMTQSPSSLSASVGDRVTITCRASQSILTYVNWYQQKPGKAPKLLIYAATSRHSGVPSRFSGSGSGTDFTLTISSLQPEDFATYYCQQSDNNPLTFGGGTKVEIK"
3.45 OD,2.15 OD,1.98 OD,"365_G02 (antibody, V domains shown, VH and VL only) VH: EVQLLESGGGLVQPGGSLRLSCAASGFTFSDYSMNWVRQAPGKGLEWVSNINYNSGYKGYADSVKGRFTISRDNSKNTLYLQMNSLRAEDTAVYYCARSATWHDTHLDYWGQGTLVTVSS VL: DIQMTQSPSSLSASVGDRVTITCRASQSIVTYLNWYQQKPGKAPKLVIYAVTSLHSGVPSRFSGSGSGTDFTLTISSLQPEDFATYYCQQSYELPLTFGGGTKVEIK"
3.42 OD,3.08 OD,2.95 OD,"365_D06 (antibody, V domains shown, VH and VL only) VH: EVQLLESGGGLVQPGGSLRLSCAASGFTFDSYSMNWVRQAPGKGLEWVSNINYNGGYTSYADSVKGRFTISRDNSKNTLYLQMNSLRAEDTAVYYCARSATWHDTHLDYWGQGTLVTVSS VL: DIQMTQSPSSLSASVGDRVTITCRASQSILTYVNWYQQKPGKAPKLLIYAATSRASGVPSRFSGSGSGTDFTLTISSLQPEDFATYYCQQSYSLPLTFGGGTKVEIK"
3.37 OD,3.06 OD,3.02 OD,"366_C07 (antibody, V domains shown, VH and VL only) VH: EVQLLESGGGLVQPGGSLRLSCAASGFTFSSYSMNWVRQAPGKGLEWVSNINYNGGYTSYADSVKGRFTISRDNSKNTLYLQMNSLRAEDTAVYYCARSATWHDTHLDYWGQGTLVTVSS VL: DIQMTQSPSSLSASVGDRVTITCRASQSILTYVNWYQQKPGKAPKLLIYAATSRASGVPSRFSGSGSGTDFTLTISSLQPEDFATYYCQQSYNSPLTFGGGTKVEIK"
3.46 OD,2.46 OD,2.46 OD,"367_D02 (antibody, V domains shown, VH and VL only) VH: EVQLLESGGGLVQPGGSLRLSCAASGFTFDDYSMNWVRQAPGKGLEWVSNINYNGGYTSYADSVKGRFTISRDNSKNTLYLQMNSLRAEDTAVYYCARSATWHDTHLDYWGQGTLVTVSS VL: DIQMTQSPSSLSASVGDRVTITCRASQSIVTYVNWYQQKPGKAPKLLIYAATSRASGVPSRFSGSGSGTDFTLTISSLQPEDFATYYCQQSYENPLTFGGGTKVEIK"
3.33 OD,2.69 OD,2.56 OD,"365_E03 (antibody, V domains shown, VH and VL only) VH: EVQLLESGGGLVQPGGSLRLSCAASGFTFDSYSMNWVRQAPGKGLEWVSNINYNGGYTGYADSVKGRFTISRDNSKNTLYLQMNSLRAEDTAVYYCARSATWHDTHLDYWGQGTLVTVSS VL: DIQMTQSPSSLSASVGDRVTITCRASQSILTYVNWYQQKPGKAPKLLIYAATSLHSGVPSRFSGSGSGTDFTLTISSLQPEDFATYYCQQSDERPLTFGGGTKVEIK"
3.54 OD,2.72 OD,2.55 OD,"366_E03 (antibody, V domains shown, VH and VL only) VH: EVQLLESGGGLVQPGGSLRLSCAASGFTFDSYGMNWVRQAPGKGLEWVSNINYNGGYKSYADSVKGRFTISRDNSKNTLYLQMNSLRAEDTAVYYCARSATWHDTHLDYWGQGTLVTVSS VL: DIQMTQSPSSLSASVGDRVTITCRASQSILTYLNWYQQKPGKAPKLVIYAATSRHSGVPSRFSGSGSGTDFTLTISSLQPEDFATYYCQQSYSNPLTFGGGTKVEIK"
3.55 OD,2.74 OD,2.41 OD,"366_C03 (antibody, V domains shown, VH and VL only) VH: EVQLLESGGGLVQPGGSLRLSCAASGFTFDSYGMNWVRQAPGKGLEWVSNINYNGGYTGYADSVKGRFTISRDNSKNTLYLQMNSLRAEDTAVYYCARSATWHDTHLDYWGQGTLVTVSS VL: DIQMTQSPSSLSASVGDRVTITCRASQSILSYLNWYQQKPGKAPKLVIYAATSRASGVPSRFSGSGSGTDFTLTISSLQPEDFATYYCQQSYSNPLTFGGGTKVEIK"
3.53 OD,2.56 OD,2.38 OD,"365_H09 (antibody, V domains shown, VH and VL only) VH: EVQLLESGGGLVQPGGSLRLSCAASGFTFSSYGMNWVRQAPGKGLEWVSSINYNSGYKSYADSVKGRFTISRDNSKNTLYLQMNSLRAEDTAVYYCARSATWHDTHLDYWGQGTLVTVSS VL: not shown"
3.44 OD,2.15 OD,1.87 OD,"366_F06 (antibody, V domains shown, VH and VL only) VH: EVQLLESGGGLVQPGGSLRLSCAASGFTFSDYGMNWVRQAPGKGLEWVSSINYNGGYTSYADSVKGRFTISRDNSKNTLYLQMNSLRAEDTAVYYCARSATWHDTHLDYWGQGTLVTVSS VL: DIQMTQSPSSLSASVGDRVTITCRASQSISTYLNWYQQKPGKAPKLLIYAATSLASGVPSRFSGSGSGTDFTLTISSLQPEDFATYYCQQSYSNPLTFGGGTKVEIK"
3.32 OD,2.78 OD,2.69 OD,"367_G08 (antibody, V domains shown, VH and VL only) VH: EVQLLESGGGLVQPGGSLRLSCAASGFTFDSYGMNWVRQAPGKGLEWVSNINYNGGYKGYADSVKGRFTISRDNSKNTLYLQMNSLRAEDTAVYYCARSATWHDTHLDYWGQGTLVTVSS VL: DIQMTQSPSSLSASVGDRVTITCRASQSILSYLNWYQQKPGKAPKLLIYAATSRASGVPSRFSGSGSGTDFTLTISSLQPEDFATYYCQQSYENPLTFGGGTKVEIK"
